Measurements taken from publication PMC3741120, “A Sperm–Plasma β-N-Acetyl-D-Hexosaminidase Interacting with a Chitinolytic β-N-Acetyl-D-Hexosaminidase in Insect Molting Fluid” (PLoS ONE, 2013).

Columns and labels:
[1] = substrate: CC(=O)N[C@H]1[C@H](Oc2ccc([N+](=O)[O-])cc2)O[C@H](CO)[C@@H](O)[C@@H]1O; assay: purified protein; format: biochemical, Ostrinia furnacalis; settings: Britton-Robinson buffer (pH of kinetics not given), 25°C, 30 min
[2] = substrate: CC(=O)N[C@H]1[C@H](Oc2ccc([N+](=O)[O-])cc2)O[C@H](CO)[C@H](O)[C@@H]1O; assay: purified protein; format: biochemical, Ostrinia furnacalis; settings: Britton-Robinson buffer (pH of kinetics not given), 25°C, 30 min

B1: OfHex3 (Ostrinia furnacalis) (protein)
chain: NENEIKDPTPIVYEPSWVFKCIPNVGCQRAAHPQSMMTTNSSHVFYDSIDLCRTVCGRFGGIWPKPLTAGLSMQTVQMHPTHLRYDLSDVPAEARELIAQMTQVASSNLLAECRGNVTEVVDTPVVVYLVVTSENLDLTWDTDEKYDLDVQTKNQKVSVTITAATVYGARHGLETFTQLVTADRPEYSDQTRCALRVISGARIKDYPAYRHRGLVLDTSRHFIPMKDIKRTIDGMAASKLNVFHWHVTDSHSFPLESTRVPQFTRYGAYSSSEIYSAEEVRQLIKYAQIRGVRVVIEIDSPAHAGNGWQWGQDYGFGDLAVCVNTEPWRGLCIQPPCGQLNPANPTMYRVLRNLYKDLAEALPKPALFHMGGDEVFFPCWNSSEQIRAYMQEKGLNTTTEGFLRLWSEFHETILSIWDEELKAIGTDAQPVILWSSALTKSNYVQRFLNKDRYVIEVWEPLDSPLLMELLRLGYRTISVPKDVWYLDHGFWGSTKFSNWRRMYAYILPKSQHMLGGEVAMWSEYVDKEVLDTRIWPRAAAVAERLWADPMSTASAAEPRLQRFRSRLQARGLRPDAMSPAWCEQHDGRCL
notes: mature protein without signal peptide (residues 1-18 removed; ORF 609 residues); C-terminal 6xHis, N-terminal alpha-factor secretion signal; Pichia pastoris GS115; glycosylated, 75 kDa on SDS-PAGE
Question: With B1 as the protein, how does the Km [1] read?
Answer: 1627 µM

Question: And the kcat [1]?
Answer: 27.7 s⁻¹

Question: What about the kcat/Km [1] of the same protein?
Answer: 17000 M⁻¹ s⁻¹

Question: What about the Km [2] of the same protein?
Answer: 2673 µM

Question: And the kcat [2]?
Answer: 5.63 s⁻¹

Question: And the kcat/Km [2]?
Answer: 2110 M⁻¹ s⁻¹
